Assay results taken from article PMC11931385, “Structural and functional analysis of cancer-associated missense variants in the retinoblastoma protein pocket domain” (The Journal of Biological Chemistry, 2025).
Substitutions are numbered along the chain they refer to. Names may count otherwise. No end group written: not given here. TMR = tetramethyl rhodamine dye

B1: TMR-E2F1^TD, peptide of the E2F1 transactivation domain (peptide)
peptide: {TMR}-GEGIRDLFDCDFGDLTPLD
notes: also called E2F^TD; source: synthetic peptide, bought: GenScript
B2: TMR-E7^LxCxE, LxCxE peptide of the E7 oncoprotein from HPV (peptide)
peptide: DLYCYEQLN
modifications: also: TMR label, position not given here
notes: source: synthetic peptide, bought: GenScript

How the values were obtained:
Assay in all cases: fluorescence polarisation; 37 °C, after the 25 °C reading ramped over 7 min to 37 °C and 2 min incubation; unlabeled Rb^P against 1.5 nM TMR-E2F1^TD or 7.5 nM TMR-E7^LxCxE; 25 mM Tris pH 8.0, 200 mM NaCl, 1 mM DTT, 0.1% Tween-20; apparent Kd
Conditions in all cases: both partners purified
[1] = biological target: T1, retinoblastoma protein pocket domain (Rb^P), wild type (human, UniProt P06400 380-788)
T1 construct: also called WT Rb^P; WT
T1 sequence (looked up): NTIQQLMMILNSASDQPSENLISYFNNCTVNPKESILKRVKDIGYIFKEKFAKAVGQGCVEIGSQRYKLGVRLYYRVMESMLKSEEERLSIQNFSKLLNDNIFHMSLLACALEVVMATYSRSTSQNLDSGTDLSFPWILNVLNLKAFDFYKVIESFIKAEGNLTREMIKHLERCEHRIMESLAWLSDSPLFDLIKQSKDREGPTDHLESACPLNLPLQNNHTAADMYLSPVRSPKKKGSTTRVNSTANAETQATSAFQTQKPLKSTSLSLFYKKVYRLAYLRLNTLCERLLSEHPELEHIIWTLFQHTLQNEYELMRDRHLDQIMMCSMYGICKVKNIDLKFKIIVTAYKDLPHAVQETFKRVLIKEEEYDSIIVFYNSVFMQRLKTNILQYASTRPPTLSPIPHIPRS

Rb^P S463L = biological target: T2, Rb^P S463L (human, UniProt P06400 380-788, S463L)
T2 construct: also called variant 10
T2 sequence (looked up): T1 sequence (looked up) with S84L

Rb^P Q444L = biological target: T3, Rb^P Q444L (human, UniProt P06400 380-788, Q444L)
T3 construct: also called variant 3
T3 sequence (looked up): T1 sequence (looked up) with Q65L

Rb^P E693A = biological target: T4, Rb^P E693A (human, UniProt P06400 380-788, E693A)
T4 construct: also called variant 60
T4 sequence (looked up): T1 sequence (looked up) with E314A

Rb^P I703F = biological target: T5, Rb^P I703F (human, UniProt P06400 380-788, I703F)
T5 construct: also called variant 64
T5 sequence (looked up): T1 sequence (looked up) with I324F

Binder	Kd [1]	Kd (Rb^P S463L)	Kd (Rb^P Q444L)	Kd (Rb^P E693A)	Kd (Rb^P I703F)
B1	22 nM	41 nM	30 nM	59 nM	396 nM
B2	12 nM	17 nM	11 nM	24 nM	275 nM
